This note sets out measurements from patent US7745151B2, “Methods of determining binding between Nogo receptor and p75 neurotrophin receptor” (Children's Medical Center Corporation, priority 2002, dated 2010).

For experiment [1], the target named is T1, CHO cells expressing full-length NgR (Homo sapiens, UniProt Q9BZR6).
T1 construct: expressed in transfected cells; host or cells: CHO cells
T1 sequence (Q9BZR6 27-473): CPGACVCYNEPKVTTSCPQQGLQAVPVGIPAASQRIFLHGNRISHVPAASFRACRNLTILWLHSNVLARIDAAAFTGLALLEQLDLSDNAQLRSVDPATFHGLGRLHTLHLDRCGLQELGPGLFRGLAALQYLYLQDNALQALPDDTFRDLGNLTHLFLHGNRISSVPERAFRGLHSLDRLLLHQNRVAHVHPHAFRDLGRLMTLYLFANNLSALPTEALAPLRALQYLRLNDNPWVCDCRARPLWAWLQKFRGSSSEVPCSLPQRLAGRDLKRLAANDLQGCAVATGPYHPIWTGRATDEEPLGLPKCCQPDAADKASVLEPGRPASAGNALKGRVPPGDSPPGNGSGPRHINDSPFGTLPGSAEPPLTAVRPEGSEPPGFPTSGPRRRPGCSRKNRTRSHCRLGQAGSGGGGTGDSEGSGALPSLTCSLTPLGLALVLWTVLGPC
The experiment in a line: Cell surface binding assay of AP-p75. The source says: When we overexpress HA-tagged P75 and FLAG-tagged NgR into CHO cells, we find that p75 can be co-immunoprecipitated with NgR, but not with a control transmembrane protein Plexin A3. We also utilize a cell surface binding assay to better visualize the NgR/P75 interaction.
Upon expression in cerebellar granule neurons (CGNs), this truncated NgR, but not full-length NgR, blocks the inhibitory responses elicited by immobilized inhibitors.
Exemplary experimental protocols: Binding experiments: Sequence encoding the extracellular domain of rat p75 was subcloned into the expression vector AP-5 to express an AP-p75 fusion protein tagged with both a polyhistidine and a myc epitope. The resultant plasmid DNA was transfected into COS-7 cells and the secreted protein purified using nickel-Agarose resins (Qiagen). Cell surface binding with AP-p75 and other AP proteins were performed as described previously. For visualization of bound proteins, NBT and BCIP were used as AP substrates.

The subject of experiment [2] is DRG neurons. The experiment is described as follows: Neurite outgrowth assay, wild type versus P75 mutant neurons. It counts as cell-based, mice. The source says: We use a neurite outgrowth assay to compare the responses of neurons from wild type mice and those carrying a mutation in the P75 gene to individual inhibitors (Lee et al., Cell 1992 May 29; 69(5):737-49). Neurite outgrowth of DRG neurons from P75 (−/−) was not inhibited by MAG-Fc.

B1: AP-p75: alkaline phosphatase (AP) fusion protein containing the extracellular domain of P75 (protein)
chain: KETCSTGLYTHSGECCKACNLGEGVAQPCGANQTVCEPCLDNVTFSDVVSATEPCKPCTECLGLQSMSAPCVEADDAVCRCAYGYYQDEETGHCEACSVCEVGSGLVFSCQDKQNTVCEECPEGTYSDEANHVDPCLPCTVCEDTERQLRECTPWADAECEEIPGRWIPRSTPPEGSDSTAPSTQEPEVPPEQDLVPSTVADMVTTVMGSSQPVVTRGTTDNLI
modifications: left off: large carriers; small tags and cut ends
Regarding B1, the “binding of AP-p75 to NgR-expressing cells” value in experiment [1] was “able to bind CHO cells expressing full-length NgR specifically”.

B2: OM-his: myelin inhibitor protein; his-tagged OMgp (protein, UniProt P23515 25-417, looked up)
Oligodendrocyte-myelin …: ICPLQCICTERHRHVDCSGRNLSTLPSGLQENIIHLNLSYNHFTDLHNQLTQYTNLRTLDISNNRLESLPAHLPRSLWNMSAANNNIKLLDKSDTAYQWNLKYLDVSKNMLEKVVLIKNTLRSLEVLNLSSNKLWTVPTNMPSKLHIVDLSNNSLTQILPGTLINLTNLTHLYLHNNKFTFIPDQSFDQLFQLQEITLYNNRWSCDHKQNITYLLKWMMETKAHVIGTPCSTQISSLKEHNMYPTPSGFTSSLFTVSGMQTVDTINSLSVVTQPKVTKIPKQYRTKETTFGATLSKDTTFTSTDKAFVPYPEDTSTETINSHEAAAATLTIHLQDGMVTNTSLTSSTKSSPTPMTLSITSGMPNNFSEMPQQSTTLNLWREETTTNVKTPLPS
modifications: His tag
notes: his-tagged OMgp
As to B2, the neurite outgrowth inhibition entry in experiment [2] (neurons from P75 (-/-) mice) is on record as “neither of these proteins restrict neurite outgrowth”; in experiment [2] (wild type neurons), “efficiently inhibited”.
